Laboratory results reported in US20250136694A1 (HARBOUR BIOMED SHANGHAI, published 2025).

Experiments:
[1] = biological target: T1, mouse B7-H4 on the cell surface (mouse, UniProt Q7TSP5 25-257); assay: FACS, CHO-K1/m B7-H4 cells
T1 construct: whole, on cells; also called m B7-H4; CHO-K1/mB7-H4
T1 sequence (looked up): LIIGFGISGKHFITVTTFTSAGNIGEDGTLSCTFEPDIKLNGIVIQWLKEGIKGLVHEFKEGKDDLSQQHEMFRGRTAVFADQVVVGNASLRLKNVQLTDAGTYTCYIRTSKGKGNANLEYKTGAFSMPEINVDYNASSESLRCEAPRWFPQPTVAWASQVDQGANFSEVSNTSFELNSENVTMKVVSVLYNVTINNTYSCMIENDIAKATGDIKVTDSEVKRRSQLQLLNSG
Description: (§1) Briefly, cells were digested and resuspended in PBS containing 2% FBS, and the cell density was adjusted to 1×10⁶ cells/mL. The cells were seeded in a 96-well V-bottom plate (Corning, Cat #3894) at 100 μL/well, followed by the addition of test antibodies 3-fold serially diluted at a concentration that was 2 times the final concentration, each at 100 μL/well. The cells were incubated away from light at 4° C. for 2 h. Then, the cells in each well were rinsed twice with 100 μL of pre-cooled PBS and centrifuged at 500 g at 4° C. for 5 min, and then the supernatant was discarded. […] The cells in each well were then rinsed twice with 100 μL of pre-cooled PBS and centrifuged at 500 g at 4° C. for 5 min, and then the supernatant was discarded. Finally, the cells in each well were resuspended in 200 μL of pre-cooled PBS, and the fluorescence signal values were read using ACEA Novocyte3000.

[2] = biological target: T2, human B7-H4 on the cell surface (human, UniProt Q7Z7D3 25-282); assay: FACS, MDA-MB-468 cells
T2 construct: whole, on cells; also called hu B7-H4; CHO-K1/huB7-H4
T2 sequence (looked up): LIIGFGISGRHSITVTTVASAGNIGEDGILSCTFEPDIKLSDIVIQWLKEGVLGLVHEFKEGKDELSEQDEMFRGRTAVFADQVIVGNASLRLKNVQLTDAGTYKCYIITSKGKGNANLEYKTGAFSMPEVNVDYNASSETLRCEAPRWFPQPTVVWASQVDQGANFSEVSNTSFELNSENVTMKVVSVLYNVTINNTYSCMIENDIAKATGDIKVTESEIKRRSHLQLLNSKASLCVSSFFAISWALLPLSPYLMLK
Description: as §1

[3] = biological target: T3, cynomolgus monkey B7-H4 on the cell surface (cynomolgus monkey, UniProt A0A2K5U6P5 25-282); assay: FACS, CHO-K1/cyno B7-H4 cells
T3 construct: whole, on cells; also called cyno B7-H4; CHO-K1/cynoB7-H4
T3 sequence: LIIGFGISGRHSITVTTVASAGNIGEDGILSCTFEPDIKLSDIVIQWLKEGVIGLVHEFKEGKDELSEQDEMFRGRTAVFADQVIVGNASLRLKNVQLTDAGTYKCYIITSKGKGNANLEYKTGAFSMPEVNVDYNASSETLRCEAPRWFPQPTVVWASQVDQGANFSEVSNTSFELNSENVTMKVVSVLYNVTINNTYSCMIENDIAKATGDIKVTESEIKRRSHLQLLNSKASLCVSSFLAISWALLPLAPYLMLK
Description: as §1

[4] = biological target: T2, human B7-H4 on the cell surface; assay: FACS, CHO-K1/hu B7-H4 cells
Description: as §1

[5] = biological target: T4, human B7-H4 (protein in solution, BLI) (human, UniProt Q7Z7D3 25-258, limits assumed); assay: BLI (Octet), antibody captured on AHC sensor, antigen in solution
T4 sequence (looked up): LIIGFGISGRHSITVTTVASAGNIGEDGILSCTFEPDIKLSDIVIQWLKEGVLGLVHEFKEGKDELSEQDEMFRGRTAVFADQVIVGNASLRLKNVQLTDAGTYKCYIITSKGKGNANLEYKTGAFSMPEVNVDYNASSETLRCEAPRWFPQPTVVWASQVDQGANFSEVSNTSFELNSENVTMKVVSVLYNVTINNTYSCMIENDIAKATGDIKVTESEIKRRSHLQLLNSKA
Description: The binding kinetics between the antigen and the antibody was analyzed by the biolayer interferometry (BLI) technique using an Octet Red 96e molecular interaction analyzer (Fortebio).
When the affinity of the antigen for the antibody was determined, the rotation speed of the sensor was set at 1000 rpm/min. […] Finally, the AHC sensor was immersed in a 10 mM glycine-hydrochloric acid solution at pH 1.5 for regeneration to elute the proteins bound to the sensor.
When data analysis was performed using Octet Data Analysis software (Fortebio, version 11.0), 0 nM was taken as a reference well, and reference subtraction was performed; the “1:1 Global fitting” method was selected to fit the data, and the kinetics parameters of the binding of antigens to antigen-binding proteins were calculated, with kₒₙ(1/Ms) values, kdis(1/s) values, and KD(M) values obtained (see Table 3 and FIG. 2).

[6] = biological target: T1, mouse B7-H4 on the cell surface; assay: FACS on CHO-K1/mB7-H4 cells
[7] = biological target: T2, human B7-H4 on the cell surface; assay: FACS, CHO-K1/hu B7-H4 cells; remark: listed apart in the source
Description: as §1

Row | Binder | EC50 [1] | EC50 [2] | Maximum MFI [2] | EC50 [3] | Maximum MFI [3] | EC50 [4] | Kd [5] | koff [5] | kon [5] | binding result [6] | EC50 [7] | Maximum MFI [7]
1 | PR006008 (antibody, IgG1, V domains shown, also called R7004M6D4; anti-human B7-H4 HCAb monoclonal antibody) VH: EVQLVESGGGLVQPGGSLRLSCAASGFTFTDFWMHWVRQVPGKGREWVSRISPDGSSTSYEDSVKGRFTISRDNAKNTVYLQMHGLRAEDTAVYYCTRFSTGWHRIEYFQHWGQGTLVTVSS | 0.403 nM | 0.162 nM | 149000 MFI | 0.432 nM | 1.25e+06 MFI | 1.07 nM | 3.65 nM | 0.00114 s⁻¹ | 312000 M⁻¹ s⁻¹ | – | – | –
2 | PR006004 (antibody, V domains shown, also called R7004M1A2; anti-human B7-H4 HCAb monoclonal antibody) VH: EVQLVESGGGLVQPGGSLRLSCAASGFAFSNYWMHWARQVPGKGRVWISRISGDGRSTSYADSVKGRFTISRDNAKNMVYLQMNNLRAEDTAVYYCARDRFGDDYYYGMNVWGQGTTVTVSS | – | 5.19 nM | 183000 MFI | 1.65 nM | 1.57e+06 MFI | 4.86 nM | 1.89 nM | 0.000396 s⁻¹ | 210000 M⁻¹ s⁻¹ | no binding (tested: 100 nM) | 2.75 nM | 1.63e+06 MFI
3 | PR007195 (antibody, IgG1, V domains shown, also called charge variant of PR006004 (V46E, G55S, R56D, A61E)) VH: EVQLVESGGGLVQPGGSLRLSCAASGFAFSNYWMHWARQVPGKGREWISRISGDSDSTSYEDSVKGRFTISRDNAKNMVYLQMNNLRAEDTAVYYCARDRFGDDYYYGMNVWGQGTTVTVSS | – | – | – | – | – | – | – | – | – | – | 5.65 nM | 1.58e+06 MFI
4 | PR007196 (antibody, IgG1, V domains shown, also called charge variant of PR006004 (V46E, G55S, R56E)) VH: EVQLVESGGGLVQPGGSLRLSCAASGFAFSNYWMHWARQVPGKGREWISRISGDSESTSYADSVKGRFTISRDNAKNMVYLQMNNLRAEDTAVYYCARDRFGDDYYYGMNVWGQGTTVTVSS | – | – | – | – | – | – | – | – | – | – | 3.72 nM | 971000 MFI
5 | PR007200 (antibody, IgG1, V domains shown, also called charge variant of PR006004 (V46E, G55S, R56S)) VH: EVQLVESGGGLVQPGGSLRLSCAASGFAFSNYWMHWARQVPGKGREWISRISGDSSSTSYADSVKGRFTISRDNAKNMVYLQMNNLRAEDTAVYYCARDRFGDDYYYGMNVWGQGTTVTVSS | – | – | – | – | – | – | – | – | – | – | 5.39 nM | 1.48e+06 MFI

Second part, the binder after the results:

Row | EC50 [1] | EC50 [2] | Maximum MFI [2] | EC50 [3] | Maximum MFI [3] | EC50 [4] | Kd [5] | koff [5] | kon [5] | binding result [6] | EC50 [7] | Maximum MFI [7] | Binder
6 | 0.617 nM | 0.244 nM | 148000 MFI | 0.721 nM | 1.26e+06 MFI | – | – | – | – | – | – | – | PR007441 (antibody, IgG1, V domains shown, also called PTM variant (G55S) of PR006008) VH: EVQLVESGGGLVQPGGSLRLSCAASGFTFTDFWMHWVRQVPGKGREWVSRISPDSSSTSYEDSVKGRFTISRDNAKNTVYLQMHGLRAEDTAVYYCTRFSTGWHRIEYFQHWGQGTLVTVSS
7 | – | – | – | – | – | – | – | – | – | – | 5.58 nM | 1.51e+06 MFI | PR007202 (antibody, IgG1, V domains shown, also called charge variant of PR006004 (V46E, G55S, R56T)) VH: EVQLVESGGGLVQPGGSLRLSCAASGFAFSNYWMHWARQVPGKGREWISRISGDSTSTSYADSVKGRFTISRDNAKNMVYLQMNNLRAEDTAVYYCARDRFGDDYYYGMNVWGQGTTVTVSS
8 | – | – | – | – | – | – | – | – | – | – | 5.5 nM | 1.46e+06 MFI | PR007201 (antibody, IgG1, V domains shown, also called charge variant of PR006004 (V46E, G55S, R56S, A61E)) VH: EVQLVESGGGLVQPGGSLRLSCAASGFAFSNYWMHWARQVPGKGREWISRISGDSSSTSYEDSVKGRFTISRDNAKNMVYLQMNNLRAEDTAVYYCARDRFGDDYYYGMNVWGQGTTVTVSS
9 | – | 9.18 nM | 185000 MFI | 3.06 nM | 1.59e+06 MFI | – | – | – | – | no binding (tested: 100 nM) | – | – | PR007440 (antibody, IgG1, V domains shown, also called PTM variant (G55S) of PR006004) VH: EVQLVESGGGLVQPGGSLRLSCAASGFAFSNYWMHWARQVPGKGRVWISRISGDSRSTSYADSVKGRFTISRDNAKNMVYLQMNNLRAEDTAVYYCARDRFGDDYYYGMNVWGQGTTVTVSS
10 | – | – | – | – | – | – | – | – | – | – | 5.41 nM | 1.53e+06 MFI | PR007203 (antibody, IgG1, V domains shown, also called charge variant of PR006004 (V46E, G55S, R56T, A61E)) VH: EVQLVESGGGLVQPGGSLRLSCAASGFAFSNYWMHWARQVPGKGREWISRISGDSTSTSYEDSVKGRFTISRDNAKNMVYLQMNNLRAEDTAVYYCARDRFGDDYYYGMNVWGQGTTVTVSS
